This note sets out measurements from paper PMC4964977 (Biochemical Journal, 2016).

Square brackets hold non-standard residues; d marks the D form. Ends that are not written are not given here. * marks the point of attachment. Biotin = O=C1N[C@H]2[C@H](CS[C@H]2CCCCC(=O)*)N1; pS = N[C@@H](COP(=O)(O)O)C(=O)O

For assay [1], the target named is T1, native NCX1(301–320) peptide synthesized on membrane (rat, covalently linked to the membrane).
T1 peptide: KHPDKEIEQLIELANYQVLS
Briefly: peptide or protein array.

Assay [2] addresses T2, PLM 20-mer RCKFNQQQRTGEPDEEEGTF (R41–F60), on membrane (mouse, covalently linked to the membrane).
T2 peptide: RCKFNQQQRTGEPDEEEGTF
Briefly: peptide or protein array.

As to Biotin-KRCRCKFNQQQRTGEPDEEEGTFRSSIRRL[pS]SRRR (cysteine pairing not given here) [biotin–pSer68-PLMcyt], the binding result in assay [1] is recorded as “binds”.

Regarding Biotin-ARILKELKQKHPDKEIEQLI [biotin–NCX1(292–311)], the binding result in assay [2] is “binds”.

On to Biotin-KHPDKEIEQLIELANYQVLS [biotin–NCX1(301–320)], for which the binding result in assay [2] is on record as “binds”.

Biotin-KQRGMIIEHEGDRPASKTEI [biotin–NCX1(235–254)]: the binding result in assay [2] is “binds”.
